Source: PMC3102065
Values joined by “and” are separate entries in the source; they are usually repeats but may differ in a detail not shown here. Identical values can stand only once.

Molecular target: HSP90N (human HSP90 isoform that lacks the N-terminal ATPase domain) (human) (UniProt P07900)
Experiment: AUC; sedimentation velocity of fractions from the S-300 column, 0.3 mg/ml in 100 mM Tris-HCl, 45,000 rpm, 20°C, c(s) distribution (SEDFIT)

stoichiometry N: 2 and 4 and 6
Substance: HSP90N (human HSP90 isoform that lacks the N-terminal ATPase domain) (from UniProt P07900-1 224-732) (natural protein)
